Numbered stars: 1 amine (or outer) side, 2 acyl side, 3 side chain; on linkers, the order of the positions; unused ones are H or OH. Bridge positions count the residues as written; N and C are the ends. Side chains are listed from the residue outwards. Ends that are not written are not given here. * marks the point of attachment. C20 diacid = O=C(O)CCCCCCCCCCCCCCCCCCC(=O)*; γGlu = O=C(O)[C@H](CCC(=O)[*:2])N[*:1]
T1: rat calcitonin receptor (rat, UniProt P32214 25-516)
T1 construct: whole, on cells; Used as membranes prepared from transiently transfected BHK tk'ts 13 cells (Assay VIII); also called rCTR; rat calcitonin (a) receptor
T1 sequence (looked up): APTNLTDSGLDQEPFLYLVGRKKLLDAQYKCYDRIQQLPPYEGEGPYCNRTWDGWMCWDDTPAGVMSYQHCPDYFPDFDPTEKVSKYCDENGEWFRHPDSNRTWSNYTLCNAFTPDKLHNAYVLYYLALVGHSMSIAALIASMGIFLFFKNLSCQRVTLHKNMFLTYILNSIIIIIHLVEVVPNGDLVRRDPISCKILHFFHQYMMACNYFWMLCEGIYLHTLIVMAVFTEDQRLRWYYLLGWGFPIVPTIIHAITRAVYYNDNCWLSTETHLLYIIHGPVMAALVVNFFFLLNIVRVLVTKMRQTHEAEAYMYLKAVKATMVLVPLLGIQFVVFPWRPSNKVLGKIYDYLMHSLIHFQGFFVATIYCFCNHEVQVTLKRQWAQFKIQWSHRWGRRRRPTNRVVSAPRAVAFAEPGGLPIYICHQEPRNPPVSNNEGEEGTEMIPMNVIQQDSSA

T2: human calcitonin receptor (human, UniProt P30988 25-474)
T2 construct: whole, on cells; Assayed as cell membranes of BHK tk'ts 13 cells stably transfected with the human calcitonin receptor (Assay VII); also called hCTR; hCT
T2 sequence (looked up): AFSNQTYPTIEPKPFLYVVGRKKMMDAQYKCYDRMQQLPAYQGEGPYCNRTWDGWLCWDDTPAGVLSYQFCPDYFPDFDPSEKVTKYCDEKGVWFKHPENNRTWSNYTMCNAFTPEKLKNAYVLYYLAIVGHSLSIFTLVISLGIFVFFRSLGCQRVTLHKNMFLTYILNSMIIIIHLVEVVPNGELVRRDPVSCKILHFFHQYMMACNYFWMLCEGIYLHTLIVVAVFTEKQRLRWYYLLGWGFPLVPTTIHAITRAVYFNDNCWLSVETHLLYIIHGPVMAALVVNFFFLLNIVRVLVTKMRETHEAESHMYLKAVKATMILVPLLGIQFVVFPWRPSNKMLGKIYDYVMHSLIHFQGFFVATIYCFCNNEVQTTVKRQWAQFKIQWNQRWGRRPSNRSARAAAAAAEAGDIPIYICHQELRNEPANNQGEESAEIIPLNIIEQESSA

T3: human amylin receptor (amylin 3(a) receptor: human calcitonin receptor co-expressed with RAMP-3) (human, UniProt P30988 25-474; O60896 24-148, limits assumed)
T3 construct: whole, on cells; Assayed as cell membranes of BHK570 Amylin 3(a)/CRE-luc cells (Assay V); also called hAmylin-R; hAmylinR
T3 sequence (looked up) 1: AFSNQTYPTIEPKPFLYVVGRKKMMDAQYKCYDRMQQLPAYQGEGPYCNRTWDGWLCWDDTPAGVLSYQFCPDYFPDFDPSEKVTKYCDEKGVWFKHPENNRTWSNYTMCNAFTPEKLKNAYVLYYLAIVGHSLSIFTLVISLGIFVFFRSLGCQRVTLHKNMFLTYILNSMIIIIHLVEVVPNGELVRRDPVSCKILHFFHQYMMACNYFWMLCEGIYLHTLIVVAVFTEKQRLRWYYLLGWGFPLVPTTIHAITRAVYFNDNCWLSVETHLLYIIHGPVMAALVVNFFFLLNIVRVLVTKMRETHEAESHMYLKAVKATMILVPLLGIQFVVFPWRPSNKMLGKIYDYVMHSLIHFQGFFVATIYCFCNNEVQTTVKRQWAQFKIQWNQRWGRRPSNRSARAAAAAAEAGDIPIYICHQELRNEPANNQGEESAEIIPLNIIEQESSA
T3 sequence (looked up) 2: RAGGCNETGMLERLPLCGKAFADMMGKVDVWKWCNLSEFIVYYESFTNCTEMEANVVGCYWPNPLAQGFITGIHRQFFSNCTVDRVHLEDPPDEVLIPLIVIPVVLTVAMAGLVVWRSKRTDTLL

T4: human calcitonin receptor (human, UniProt P30988 25-474)
T4 sequence (looked up): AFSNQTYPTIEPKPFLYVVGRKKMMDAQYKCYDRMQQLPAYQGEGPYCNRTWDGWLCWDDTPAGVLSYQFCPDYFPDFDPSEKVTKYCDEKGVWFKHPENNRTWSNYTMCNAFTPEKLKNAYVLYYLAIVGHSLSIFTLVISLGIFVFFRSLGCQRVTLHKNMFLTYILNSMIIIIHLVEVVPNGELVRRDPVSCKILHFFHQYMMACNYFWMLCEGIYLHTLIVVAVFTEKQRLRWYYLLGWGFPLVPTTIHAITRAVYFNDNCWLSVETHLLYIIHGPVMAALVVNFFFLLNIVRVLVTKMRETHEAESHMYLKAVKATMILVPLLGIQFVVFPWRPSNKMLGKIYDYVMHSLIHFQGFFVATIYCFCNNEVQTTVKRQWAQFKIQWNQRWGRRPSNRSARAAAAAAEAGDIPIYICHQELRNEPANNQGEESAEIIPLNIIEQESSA


What was measured:
[1] = biological target: T1, rat calcitonin receptor; test: SPA competition binding, displacement of 125I-calcitonin from membranes of BHK tk'ts 13 cells with rat calcitonin receptor (Assay VIII)
[2] = biological target: T2, human calcitonin receptor; test: IC50 at hCTR divided by IC50 at hAmylin-R (SPA competition assays V and VII)
Outline: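 IC₅₀ values were derived by one-site competition analysis of SPA counts. Cell membranes (35 ng/μL) with SPA beads were incubated with test compounds for 120 min at 25° C in Hepes buffer, pH 7.4, containing CaCl2, MgCl₂, OA and Tween20.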

[3] = biological target: T3, human amylin receptor (amylin 3(a) …); test: SPA competition vs 125I-rat amylin, membranes of BHK cells with human amylin 3(a) receptor (Assay V)
Method: The binding assay was performed using scintillation proximity assay (SPA) beads (RPNQ0001) from PerkinElmer and cell membranes from the Amylin 3(a)/CRE-luc cells (as described in Assay (II)) were used. Membranes were prepared in the following way; the cells were rinsed with PBS and incubated with Versene for approximately 5 min before harvesting. The cells were flushed with PBS and the cell-suspension was centrifuged for 5 min at 1000 rpm. Cells were homogenized (ultrathurrax) in a buffer containing 20 mM Na-HEPES and 10 mM EDTA (pH 7.4) and centrifuged at 20.000 rpm for 15 min. The resulting pellet was resuspended, homogenized and centrifuged (20.000 rpm, 15 min) in a buffer containing 20 mM Na-HEPES and 0.1 mM EDTA (pH 7.4, buffer 2). The resulting pellet was resuspended in buffer 2 and protein concentration was measured (BCA protein Assay, Pierce). The homogenate was kept cold during the whole procedure. The membranes were kept at −80° C. until use. The assay was performed in a 384 well Optiplate (PerkinElmer) in a total volume of 40 ul. Membranes were mixed with SPA beads. Final concentration of membranes 35 ng/μL final and SPA beads was 0.05 mg/well. […] Samples were analyzed on TopCounter™ (Packard). The IC₅₀ was calculated using (one site binding competition analysis) GraphPad Prism5 as a measure of receptor affinity.

[4] = biological target: T2, human calcitonin receptor; test: SPA competition vs 125I-calcitonin, membranes of BHK cells with human calcitonin receptor (Assay VII)
Outline: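 BHK hCTR membranes 35 ng/μL + SPA beads 0.05 mg/well; buffer 50 mM Hepes pH 7.4, 1 mM CaCl2, 5 mM MgCl₂, 0.1% OA, 0.02% Tween20. 120 min, 25° C., shaking. Scintillation count; IC50 by one-site binding competition.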

[5] = biological target: T4, human calcitonin receptor; test: cell-based or functional assay

| IC50 [1] | Ratio hCT/hAmylin binding [2] | IC50 [3] | IC50 [4] | hCTR funct. EC50 (CRE luciferase reporter, BHK cells) [5] | Binder |
| --- | --- | --- | --- | --- | --- |
| 30.9 nM |  |  |  |  | KCNTATCATQRLADFLRHSSPNFGAIPSSTNVGSRTY-NH2 (disulfide 2-7 (inferred)) [[Asp14,Arg17,Pro21,Pro27,Arg35]-h-amylin] |
|  | 100 | 0.348 nM | 35 nM |  | {C20 diacid-γGlu}-GRCNTATCATQRLAHFLRHSSPNFGAIPSSTNVGSNTY-NH2 (disulfide 3-8; SMILES CC[C@H](C)[C@H](NC(=O)[C@H](C)NC(=O)CNC(=O)[C@H](Cc1ccccc1)NC(=O)[C@H](CC(N)=O)NC(=O)[C@@H]1CCCN1C(=O)[C@H](CO)NC(=O)[C@H](CO)NC(=O)[C@H](Cc1c[nH]cn1)NC(=O)[C@H](CCCNC(=N)N)NC(=O)[C@H](CC(C)C)NC(=O)[C@H](Cc1ccccc1)NC(=O)[C@H](Cc1c[nH]cn1)NC(=O)[C@H](C)NC(=O)[C@H](CC(C)C)NC(=O)[C@H](CCCNC(=N)N)NC(=O)[C@H](CCC(N)=O)NC(=O)[C@@H](NC(=O)[C@H](C)NC(=O)[C@@H]1CSSC[C@H](NC(=O)[C@H](CCCNC(=N)N)NC(=O)CNC(=O)CC[C@H](NC(=O)CCCCCCCCCCCCCCCCCCC(=O)O)C(=O)O)C(=O)N[C@@H](CC(N)=O)C(=O)N[C@@H]([C@@H](C)O)C(=O)N[C@@H](C)C(=O)N[C@@H]([C@@H](C)O)C(=O)N1)[C@@H](C)O)C(=O)N1CCC[C@H]1C(=O)N[C@@H](CO)C(=O)N[C@@H](CO)C(=O)N[C@H](C(=O)N[C@@H](CC(N)=O)C(=O)N[C@H](C(=O)NCC(=O)N[C@@H](CO)C(=O)N[C@@H](CC(N)=O)C(=O)N[C@H](C(=O)N[C@@H](Cc1ccc(O)cc1)C(N)=O)[C@@H](C)O)C(C)C)[C@@H](C)O, also called compound 99) |
|  | 51.6 | 0.09 nM | 4.63 nM |  | K([γGlu-C20 diacid])CNTATCATQRLAHFLRHSSPNFGAIPSSTNVGPNTY-NH2 (disulfide 2-7; N-terminus assumed; SMILES CC[C@H](C)[C@H](NC(=O)[C@H](C)NC(=O)CNC(=O)[C@H](Cc1ccccc1)NC(=O)[C@H](CC(N)=O)NC(=O)[C@@H]1CCCN1C(=O)[C@H](CO)NC(=O)[C@H](CO)NC(=O)[C@H](Cc1c[nH]cn1)NC(=O)[C@H](CCCNC(=N)N)NC(=O)[C@H](CC(C)C)NC(=O)[C@H](Cc1ccccc1)NC(=O)[C@H](Cc1c[nH]cn1)NC(=O)[C@H](C)NC(=O)[C@H](CC(C)C)NC(=O)[C@H](CCCNC(=N)N)NC(=O)[C@H](CCC(N)=O)NC(=O)[C@@H](NC(=O)[C@H](C)NC(=O)[C@@H]1CSSC[C@H](NC(=O)[C@@H](N)CCCCNC(=O)CC[C@H](NC(=O)CCCCCCCCCCCCCCCCCCC(=O)O)C(=O)O)C(=O)N[C@@H](CC(N)=O)C(=O)N[C@@H]([C@@H](C)O)C(=O)N[C@@H](C)C(=O)N[C@@H]([C@@H](C)O)C(=O)N1)[C@@H](C)O)C(=O)N1CCC[C@H]1C(=O)N[C@@H](CO)C(=O)N[C@@H](CO)C(=O)N[C@H](C(=O)N[C@@H](CC(N)=O)C(=O)N[C@H](C(=O)NCC(=O)N1CCC[C@H]1C(=O)N[C@@H](CC(N)=O)C(=O)N[C@H](C(=O)N[C@@H](Cc1ccc(O)cc1)C(N)=O)[C@@H](C)O)C(C)C)[C@@H](C)O, also called compound 67) |
|  |  |  |  | 2.35 nM | {C20 diacid-γGlu}-KCNTATCATQRLAEFLRHSSPNFGAIPSSTNVGHNTY-NH2 (disulfide 2-7; SMILES CC[C@H](C)[C@H](NC(=O)[C@H](C)NC(=O)CNC(=O)[C@H](Cc1ccccc1)NC(=O)[C@H](CC(N)=O)NC(=O)[C@@H]1CCCN1C(=O)[C@H](CO)NC(=O)[C@H](CO)NC(=O)[C@H](Cc1c[nH]cn1)NC(=O)[C@H](CCCNC(=N)N)NC(=O)[C@H](CC(C)C)NC(=O)[C@H](Cc1ccccc1)NC(=O)[C@H](CCC(=O)O)NC(=O)[C@H](C)NC(=O)[C@H](CC(C)C)NC(=O)[C@H](CCCNC(=N)N)NC(=O)[C@H](CCC(N)=O)NC(=O)[C@@H](NC(=O)[C@H](C)NC(=O)[C@@H]1CSSC[C@H](NC(=O)[C@H](CCCCN)NC(=O)CC[C@H](NC(=O)CCCCCCCCCCCCCCCCCCC(=O)O)C(=O)O)C(=O)N[C@@H](CC(N)=O)C(=O)N[C@@H]([C@@H](C)O)C(=O)N[C@@H](C)C(=O)N[C@@H]([C@@H](C)O)C(=O)N1)[C@@H](C)O)C(=O)N1CCC[C@H]1C(=O)N[C@@H](CO)C(=O)N[C@@H](CO)C(=O)N[C@H](C(=O)N[C@@H](CC(N)=O)C(=O)N[C@H](C(=O)NCC(=O)N[C@@H](Cc1c[nH]cn1)C(=O)N[C@@H](CC(N)=O)C(=O)N[C@H](C(=O)N[C@@H](Cc1ccc(O)cc1)C(N)=O)[C@@H](C)O)C(C)C)[C@@H](C)O, Synthetic acylated analogue of human amylin; also called compound 17) |
|  |  |  |  | 2.68 nM | KCNTATCATQRLANFLRHSSPNFGAIPSSTNVGHNTY (C20 diacid-gGlu on the alpha amino group of N-terminal Lys1; disulfide bridge Cys2-Cys7 and C-terminal amide as in human amylin, Synthetic acylated analogue of human amylin; also called compound 40) [N^α1-[(4S)-4-carboxy-4-(19-carboxynonadecanoylamino)butanoyl]-[Arg17,Pro21,Pro27,His34]-h-amylin] |
